Data reported in patent publication US20090275637, “PROTEIN TYROSINE PHOSPHATASE INHIBITORS” (published 2009).

Assays:
[1] = molecular target: T1, PTP1B (Homo sapiens, UniProt P18031 P18031:1-321); assay: inhibition; 20 mM NaCl, 5 uM DiFMUP; conditions: tags: N-terminal His6; R&D Systems 1366-PT-050; hairpin
T1 sequence: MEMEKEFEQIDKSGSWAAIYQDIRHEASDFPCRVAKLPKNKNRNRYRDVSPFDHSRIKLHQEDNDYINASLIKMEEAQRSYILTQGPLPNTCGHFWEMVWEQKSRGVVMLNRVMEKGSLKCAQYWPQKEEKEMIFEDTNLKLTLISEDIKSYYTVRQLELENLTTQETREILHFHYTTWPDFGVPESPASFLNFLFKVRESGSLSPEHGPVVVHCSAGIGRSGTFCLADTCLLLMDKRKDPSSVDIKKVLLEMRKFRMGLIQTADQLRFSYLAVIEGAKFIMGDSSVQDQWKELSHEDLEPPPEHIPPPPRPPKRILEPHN

[2] = molecular target: T1, PTP1B; assay: inhibition; 125 mM NaCl, DiFMUP; conditions: tags: N-terminal His6; R&D Systems 1366-PT-050; hairpin
Experimental: (§1) To further refine the estimate of Kᵢ, an assay was run at a fixed DiFMUP concentration of 20 μM with the C13M21 and the full-length C13 nucleic acid ligand, each premixed with the PTP1B at […] in the 125 mM NaCl buffer. […] Nonlinear fitting gives an estimate of the IC₅₀ of […]. Based on a Kₘ of 25 μM, and assuming competitive inhibition, this gives a Kᵢ of 45 nM for C13M21 and a Kᵢ of 7 nM for the full-length nucleic acid ligand at 125 mM NaCl concentration.

[3] = molecular target: T1, PTP1B; assay: inhibition; 20 mM NaCl, 5 uM DiFMUP; p151 quotes about 600 pM; conditions: tags: N-terminal His6; R&D Systems 1366-PT-050; hairpin
[4] = molecular target: T2, PTP1B catalytic domain (321 residues), GST fusion (Homo sapiens, UniProt P18031 P18031:1-321); assay: filter; 20 mM HEPES pH 7.2, 5 mM MgCl2, 125 mM NaCl, room temperature; conditions: tags: GST; hairpin
T2 sequence: T1 sequence
Experimental: Binding assays were carried out in triplicate at 12 different PTP1B concentrations using a Schleicher & Schuell Milliblot™ apparatus with 0.45 μm BioRad TransBlot® nitrocellulose layered on top of a Hybond™-N+nylon transfer membrane. Radiolabelled RNA at 100-500 pM was heated to 75° C. for 3 minutes then cooled to room temperature before mixing with a 2× serial dilution of the target and also a no-target control. 150 μL of the mixtures at each of the 12 enzyme concentrations were pre-incubated at room temperature for 60 minutes before applying to the pre-washed membrane to allow the RNA complex to reach equilibrium (Waley, S. G. (1993) The Biochemical journal 294 Pt 1, 195-200). Following addition of 40 μL per well of each mixture to three separate wells of the Milliblot™ apparatus, the filter was washed 3 times. The dilutions and all washes used the binding buffer described above. Activity of the filters was measured using a FujiFilm BAS-1800II phosphorimager and relative density used to estimate the fraction of radiolabelled RNA retained on the nitrocellulose and nylon membranes.
A binding assay with a concentration of 2 nM of the radiolabelled C13M21 nucleic acid ligand against PTP1B-GST was performed with the protein concentration ranging from 1 nM to 512 nM in a 2:1 serial dilution. […]

[5] = molecular target: T1, PTP1B; assay: inhibition; 125 mM NaCl, DiFMUP, competitive; 20 nM from Lineweaver-Burk fit; conditions: tags: N-terminal His6; R&D Systems 1366-PT-050; hairpin
Experimental: In parallel with a no-RNA control, the activity in the presence of 30 nM C13M21 was measured in duplicate for varying concentrations of DiFMUP. […] Fitting of the data in the presence of C13M21 gave a Kₘ*of 63 μM, which equates to a Kᵢ of 20 nM. The fitted Vₘₐₓ in the presence of the inhibitor was equal to or slightly greater than the no-RNA Vₘₐₓ, indicating the presence of competitive inhibition.
as §1

[6] = molecular target: T1, PTP1B; assay: inhibition; parent about 35 nM; conditions: tags: N-terminal His6; R&D Systems 1366-PT-050
Experimental: Several single-base modifications of the M21 nucleic acid ligand were also tested to determine whether the changes would affect the level of inhibition. With reference to the postulated secondary structure shown in FIG. 9, the sequence at each position on the unpaired regions was modified at positions 31 through 37 and positions 42 through 46. […] From this, it appears that the other nucleotides are either critical in the contact with the PTP1B molecule or in shaping the nucleic acid ligand into a conformation that binds with the PTP1B.

B1: C13 (ssRNA)
RNA: GGGAAUGGAUCCACAUCUACGAAUUCUGUGAUCAAUUUGGCAAUCCGCCACACGAGUUCACUGCAGACUUGACGAAGCUU
[1]
  Ki: < 0.1 nM
[2]
  Ki: 7 nM

## GGGAAUUCUGUGAUCAAUUUGGCAAUCCGCCACACGAGUUC (ssRNA) [C13M21]
[3]
  Ki: 0.3 nM
[4]
  Kd: 28 nM
[5]
  Ki: 45 nM

## GGGAAUUCUGUGAUUAAUUUGGCAAUCCGCCACACUAGUUC (ssRNA, [15,36]) [C9 shortened to M21 range]
[6]
  Ki: ~250 nM

## GGGAAUUCUGUGAUCAAUUUGGCAAUCCGCCACACUAGUUC (ssRNA, [36]) [C13M21 G54U]
[6]
  Ki: 48 nM
